Assay results taken from the supplement of paper PMC9732359.
± gives the uncertainty stated by the source.

Assay: protein stability index of a GFP-peptide fusion (yeast GPS) (PSI 1-4); higher = more stable; sorted into four equal gates, so the index is relative within each strain
Summary of the method: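 Tiled 17-residue peptides from yeast proteins were fused downstream of GFP on a plasmid that also expresses Cherry, and the pooled library was carried in yeast. Mid-log cultures grown in leucine-free medium were sorted into four equal gates by GFP/Cherry fluorescence ratio. Plasmids from each gate were PCR-amplified and Illumina-sequenced, and reads were assigned to strains by barcodes. Each peptide's protein stability index is the sum, over gates, of the gate's read frequency multiplied by its gate number.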

Sequence | protein stability index (doa10∆) | protein stability index (pdr5∆) | protein stability index (san1∆) | protein stability index (ubr1∆)
QIEKKEIKKMIITNINA [YCG1] | 2.64 ± 0.11 | 2.75 ± 0.11 | 2.7 ± 0.13 | 2.47 ± 0.15
TCVTCHWNLPGERIFNK [SIR2] | 2.87 ± 0.14 | 2.88 ± 0.11 | 2.82 ± 0.091 | 3.19 ± 0.083
DIPLAKALDNACGAFIN [CDC53] | 2.63 ± 0.091 | 3.1 ± 0.067 | 2.8 ± 0.078 | 2.87 ± 0.072
DSENNEENSSSNGNNLP [RGR1] | 2.96 ± 0.061 | 2.96 ± 0.056 | 2.96 ± 0.055 | 3.06 ± 0.039
FLDGIYVSHKGFITEDL [RPL9A] | 2.38 ± 0.081 | 2.62 ± 0.063 | 2.43 ± 0.1 | 3.29 ± 0.07
ISVARKIYDAFPQTAML [DIS3] | 2.41 ± 0.098 | 2.4 ± 0.072 | 2.61 ± 0.14 | 2.36 ± 0.089
LDSNNNNSNSNNNDNNN [SWI1] | 2.65 ± 0.035 | 2.74 ± 0.039 | 2.79 ± 0.028 | 2.71 ± 0.029
DIEAGDDDDNNESSSNT [DIS3] | 3.51 ± 0.26 | 3.4 ± 0.2 | 3.05 ± 0.11 | 2.79 ± 0.12
IADLDTEAEETSIHSTI [RRP43] | 3.76 ± 0.18 | 2.56 ± 0.17 | 3.54 ± 0.11 | 3.38 ± 0.15
NSLLLDSTPEEVSCKLL [YML103C/NUP188] | 2.67 ± 0.081 | 3.16 ± 0.08 | 2.97 ± 0.085 | 2.71 ± 0.08
VEHLLRDVRDQAAGGLS [RPN8] | 2.7 ± 0.13 | 1.99 ± 0.17 | 2.81 ± 0.17 | 1.07 ± 0.12
LIFIACNDEDKDLETLY [ECM29] | 3.11 ± 0.084 | 3.04 ± 0.067 | 2.3 ± 0.089 | 2.92 ± 0.035
YDYYALQLLPLQKAVRG [SNF2] | 1.63 ± 0.05 | 2.24 ± 0.044 | 1.87 ± 0.09 | 1.74 ± 0.035
ICQIISSTITGDVVLAA [RPL5] | 2.84 ± 0.063 | 1.89 ± 0.058 | 2.31 ± 0.069 | 3.06 ± 0.099
LKWIDTASKFGKGRFQT [RPL3] | 3.34 ± 0.11 | 3.06 ± 0.094 | 3.11 ± 0.071 | 3.09 ± 0.065
TSFGQPQSAPNQMGMGT [YOR098C/NUP1] | 2.81 ± 0.094 | 2.83 ± 0.18 | 2.9 ± 0.15 | 2.41 ± 0.17
NASQMGNTGSGGYDNAW [RPB3] | 3.36 ± 0.28 | 3.31 ± 0.17 | 3.52 ± 0.2 | 2.5 ± 0.15
VSLCAKNMGLVPMKEEN [SSN2] | 1.89 ± 0.086 | 2.38 ± 0.075 | 1.99 ± 0.11 | 2.26 ± 0.093
LYNKIWTEASSSGAGTV [ECM29] | 2.12 ± 0.065 | 1.76 ± 0.058 | 2.12 ± 0.081 | 2.93 ± 0.08
ELIIDPLFKKALVDFDE [BRN1] | 3.45 ± 0.16 | 2.98 ± 0.14 | 3.01 ± 0.24 | 3.29 ± 0.13
SLDFLNQSFIQQKANLL [COR1] | – | 1.77 ± 0.13 | – | 1.65 ± 0.079
AIFPYQDPIFGSVLLTL [ECM29] | 1.69 ± 0.045 | 1.84 ± 0.057 | 1.29 ± 0.12 | 1.45 ± 0.044
TLYIGNTANGRPPVKAI [ECM29] | 1.84 ± 0.17 | 2 ± 0.094 | 1.99 ± 0.11 | 1.47 ± 0.11
KNNSSIRNVIMSASNAN [SRB8] | 1.59 ± 0.037 | 2.13 ± 0.053 | 1.88 ± 0.095 | 1.75 ± 0.044
QGIFKNSSNYFGELQFA [AAR2] | 2.36 ± 0.14 | 2.6 ± 0.1 | 2.41 ± 0.12 | 2.11 ± 0.12
NFYLKRFISDLLWLVLI [SWI1] | 1.8 ± 0.054 | 1.88 ± 0.065 | 1.86 ± 0.095 | 1.59 ± 0.046
ITVRYWLNGKMDSKGKI [RGR1] | 3.27 ± 0.14 | 3.51 ± 0.15 | 3.31 ± 0.23 | –

Sequence | protein stability index (doa10∆) | protein stability index (pdr5∆) | protein stability index (san1∆) | protein stability index (ubr1∆)
EFRSAAGQLALDLANSG [YDL116W/NUP84] | 2.79 ± 0.14 | – | 2.82 ± 0.14 | 3 ± 0.12
AIRADPAFKPTEKKFTK [RPL5] | 3.11 ± 0.26 | 3.15 ± 0.3 | 3.18 ± 0.2 | 3.2 ± 0.24
VLSQFERSYPSEFANQN [ROX3] | 2.26 ± 0.098 | 3.15 ± 0.097 | 2.63 ± 0.15 | 2.78 ± 0.11
GSRTTTNHVLEVFSVLG [RPO31] | 2.93 ± 0.13 | 2.76 ± 0.14 | – | –
EALIEFIYDTEKNGGLG [FAS2] | 2.52 ± 0.079 | 2.63 ± 0.076 | 2.67 ± 0.054 | 2.17 ± 0.055
LKKGEVSLGTSIMAVTF [PRE3] | – | 1.67 ± 0.23 | 1.13 ± 0.18 | 1.13 ± 0.18
QKKVLIDGPKAGVPRQA [RPL14A] | 3.45 ± 0.087 | 3.35 ± 0.084 | 3.05 ± 0.059 | 3.35 ± 0.073
EIVSDVKVVDAGNKVGQ [RPP0] | – | 3.59 ± 0.2 | – | –
GVARIYASFNDTFVHVT [RPS14B] | 1.64 ± 0.082 | 2 ± 0.085 | 1.92 ± 0.077 | 2.05 ± 0.095
QKIMILQRTILNRIINH [RGR1] | 1.81 ± 0.068 | 1.83 ± 0.067 | 2 ± 0.076 | 1.7 ± 0.055
ISTSFCFICLLHLANEH [BRN1] | 1.67 ± 0.12 | 1.21 ± 0.13 | – | 1.35 ± 0.13
LAMEAILNELEVFIGRV [YJR042W/NUP85] | 2.59 ± 0.12 | 2.93 ± 0.14 | 2.76 ± 0.15 | 2.51 ± 0.06
YRRALQSSESFDDSDIT [YML103C/NUP188] | 1.89 ± 0.056 | 2.36 ± 0.059 | 2.16 ± 0.058 | 2.46 ± 0.047
KDQIQAGKWFDPVLDWR [SIR4] | 3.56 ± 0.14 | 3.49 ± 0.094 | 2.95 ± 0.19 | 3.22 ± 0.07
VTNFNSTNEDQNNSKHT [SRB5] | 3.18 ± 0.16 | 2.44 ± 0.15 | 3.06 ± 0.18 | 2.71 ± 0.076
LSRYVKWPEYVRVQRQK [RPL8A] | – | 2.67 ± 0.13 | – | 3.02 ± 0.22
NDPNAAVNMTQNIMTLP [MED6] | 2.97 ± 0.14 | 2.95 ± 0.089 | 2.71 ± 0.08 | 3.11 ± 0.059
HIFQVEYALEAVKRGTC [PRE6] | 2.76 ± 0.15 | 2.75 ± 0.13 | 2.54 ± 0.19 | 2.77 ± 0.19
SGTSSDPDTKKVKESPA [YIL149C/MLP2] | 3.21 ± 0.059 | 3.2 ± 0.046 | 3.14 ± 0.038 | 3.23 ± 0.061
ISKLFLRGDSVIVVLKT [SMD2] | 2.87 ± 0.16 | 2.89 ± 0.2 | – | –
DKRFSGSLKLPNCPRPN [RPL1A] | 2.77 ± 0.073 | 3.05 ± 0.052 | 2.94 ± 0.051 | 2.6 ± 0.046
IKLVKQNDELKFQGVLE [RPC34] | 3.25 ± 0.13 | 3.53 ± 0.12 | 3.37 ± 0.051 | 2.58 ± 0.095
CKIDFQKNFMDQFQWIL [RRI2] | – | 1.47 ± 0.092 | 1.55 ± 0.24 | 1.93 ± 0.13
EARLPSQVVWIRRLRVL [RPL19A] | 1.31 ± 0.072 | 1.63 ± 0.078 | 1.33 ± 0.11 | 1.44 ± 0.075
QNVAGDKTAVKLDTEVK [SWP82] | – | – | – | 3.32 ± 0.089
TTDNNNSGNSNSNSNQQ [RPT1] | 3.3 ± 0.12 | 2.93 ± 0.14 | 2.59 ± 0.23 | 3.36 ± 0.2
NALHTERLHELKKLQSD [SMC1] | 3.59 ± 0.078 | 3.38 ± 0.12 | 3.18 ± 0.095 | 3.48 ± 0.1
